Patent publication US12686846B2, “Plant sweet and yeast MSF transporter capable of transporting different sugars simultaneously” (THE BOARD OF TRUSTEES OF THE UNIVERSITY OF ILLINOIS, priority 2020, dated 2026)
Where a chain is given by its changes, count along the chain named. Names and notes keep the numbering of the source. Values joined by “and” are separate entries in the source; they are usually repeats but may differ in a detail not shown here. Equal values may be shown once. “Also recorded” adds a separate entry of the source.

Columns and labels:
[1] = substrate: OC[C@H]1OC(O)[C@H](O)[C@@H](O)[C@@H]1O; test: cells, lysate or membranes; conditions: other: initial glucose uptake (5 s), 30° C., pH 6.5, 0.2 to 100 mM glucose, ± SEM in Table 1
[2] = test system: SR8D8 expressing transporter; test: Glucose and xylose mixed sugar flask fermentation (20 g/L each); format: cell-based, S. cerevisiae; conditions: 20 g/L of glucose and xylose, YP medium
Experimental: (§1) For flask fermentation, a single colony was inoculated to 5 or 25 mL YPE ([…], 1% w/v yeast extract, 2% peptone, 5% ethanol) supplemented with 200 μg/ml of geneticin to obtain seed cultures. […] Flask fermentations were maintained at 30° C. and 250 rpm.
(§2) A xylose fermenting S. cerevisiae yeast (SR8) with HXT1-7Δ, GAL2Δ deletions was used for transporter screening and characterization (SR8D8). SR8D8 was grown in YPE medium/plate (10 g/L yeast extract, 20 g/L peptone, and 5 g/L ethanol). […] SRD8 strains transformed with plasmid containing KanMX marker conferring resistance to G418 (geneticin) were propagated on YPE supplemented with 200 μg/ml of geneticin. For growth and flask fermentation experiments all media was supplemented with 200 μg/ml of geneticin for plasmid maintenance. Biomass was calculated from the OD600 measured using a Biomate 5 UV-visible spectrophotometer (Fisher, NY, USA). All growth rates were measured using a Bioscreen C plate reader system (Growth Curves USA, Piscataway, NJ, USA). A 2 μL inoculum of fully grown culture was added into 200 μL YP (+200 μg/ml Geneticin) with varying concentrations of different sugars. A wide band filter (420-580 nm) was used to measure optical density. Bioscreen C values represent mean value from three biological replicates. In all cases, the Bioscreen C was set to maintain a temperature of 30° C. and high aeration through high continuous shaking.

[3] = test system: SR8D8 expressing transporter; test: Transporter screening for growth on glucose or xylose (Bioscreen C); format: cell-based, S. cerevisiae; conditions: glucose or xylose containing medium, OD600
Experimental: ScGal2 expressing SR8D8 were used as a positive control (FIG. 3). Most of the AtSWEETs and putative oleaginous transporters expressing strains were not able to grow on glucose or xylose.
as §2

[4] = test system: SR8D8 expressing transporter; test: Sole glucose or xylose flask fermentation; format: cell-based, S. cerevisiae
Experimental: as §1, §2

[5] = test system: SR8D8 expressing transporter; test: Mixed sugar fermentation at industrially relevant sugar concentrations; format: cell-based, S. cerevisiae; conditions: 7% glucose and 4% xylose (70 g/L, 40 g/L)
Experimental: as §1

[6] = test system: transporter-overexpressing SR8D8; test: Inhibition of xylose uptake by glucose; format: cell-based, S. cerevisiae; conditions: 25 mM or 100 mM glucose
Experimental: SR8D8 containing the respective plasmid was grown on selective YPE medium to an OD600 of 1-1.5, harvested by centrifugation, and washed twice in ice-cold uptake buffer (100 mM potassium phosphate, pH 6.5). C14 labeled sugar uptake assay was done according to Boles and Oreb. Radioactivity was analyzed in a Beckman-Coulter LS6500 multi-purpose liquid scintillation counter (Beckman-Coulter, CA, USA).
Sugar solutions contained 0.135-0.608 μCi of D-[U-^14C]-glucose (290-300 mCi/mmol) or D-[1-^14C]-xylose (55 mCi/mmol) (PerkinElmer, MA, USA). Calculation of Km (Michaelis constant), Vmax (maximal initial uptake velocity), and K (inhibitor constant for competitive inhibition) was done by nonlinear regression analysis and global curve fitting in Prism 7 (GraphPad Software) with values of three independent measurements.

B1: Saccharomyces cerevisiae ScGal2 (Gal2) transporter, SEQ ID NO:32 (Saccharomyces cerevisiae S288C) (protein)
chain: MAVEENNMPVVSQQPQAGEDVISSLSKDSHLSAQSQKYSNDELKAGESGSEGSQSVPIEIPKKPMSEYVTVSLLCLCVAFGGFMFGWDTGTISGFVVQTDFLRRFGMKHKDGTHYLSNVRTGLIVAIFNIGCAFGGIILSKGGDMYGRKKGLSIVVSVYIVGIIIQIASINKWYQYFIGRIISGLGVGGIAVLCPMLISEIAPKHLRGTLVSCYQLMITAGIFLGYCTNYGTKSYSNSVQWRVPLGLCFAWSLFMIGALTLVPESPRYLCEVNKVEDAKRSIAKSNKVSPEDPAVQAELDLIMAGIEAEKLAGNASWGELFSTKTKVFQRLLMGVFVQMFQQLTGNNYFFYYGTVIFKSVGLDDSFETSIVIGVVNFASTFFSLWTVENLGHRKCLLLGAATMMACMVIYASVGVTRLYPHGKSQPSSKGAGNCMIVFTCFYIFCYATTWAPVAWVITAESFPLRVKSKCMALASASNWVWGFLIAFFTPFITSAINFYYGYVFMGCLVAMFFYVFFFVPETKGLSLEEIQELWEEGVLPWKSEGWIPSSRRGNNYDLEDLQHDDKPWYKAMLE
With B1 the Km [1] was 1613 µM and 1600 ± 200 µM.

B2: Lipomyces starkeyi LST1_205437 transporter, wild type, SEQ ID NO: 4 (Lipomyces starkeyi NRRL Y-11557) (protein)
chain: MGFLGFLNRSQASEPVEKESTATTPSEGRTPQRPLSPAVGVPLEQDFETQLSAKDAPLLAFILGGVASVGGFMFGYQTGQISGFLEMSDFKTRFAACNSQTGQCTFSAARQGTIVGLFSIGTLIGSLIAAPIADRIGRRLTISFWAFFFMIGTVLEISSSHVWVQFAMGRFVGGLGIGALSVVVPMYQSESTPRMIRGVIVSSYQLMVTLGIWLAYMINWGTESLQGSQSWRITNGMSFLWALVLGIAILGLPESPRYAYRVGREEEARKNMARLYKLSPNHPIINLEIQEIQEKLDAERVGGDHPWYEIFTGPRMLYRTILGMVLQAGQQLTGANYFFYYGTTVFSATGLSNSYVTQIILGSVNVGGTIAGLWLIENCGRRKALMGGAAWMFMCFMVFAFVGHFSLDHQNPEATPQAGAALVVFSCLFIIAFAMTWGPIVWAIVGELYPARYRATCMGLATSSNWLFNFLIGFFTTFITGDIDYLYGLVFAGCCFALFFIVYFFVIETKGRSLEEIDTMYVLHVNPINSAKWDSSQLMRDGDGLVNTDDLYLEAGGNRFAKDEHSAHEMIPSHDENAPGPSHTSHADIEKAESSGAESRDAL
In the case of B2, the Km [1] is reported as 4975 µM and the Vmax [1] is reported as 46.89 nmol/min/mg.

B3: AtSWEET4: Arabidopsis thaliana SWEET4 transporter polypeptide (protein, UniProt Q944M5 1-251, looked up)
Bidirectional sugar …: MVNATVARNIAGICGNVISLFLFLSPIPTFITIYKKKKVEEYKADPYLATVLNCALWVFYGLPMVQPDSLLVITINGTGLAIELVYLAIFFFFSPTSRKVKVGLWLIGEMVFVGIVATCTLLLFHTHNQRSSFVGIFCVIFVSLMYIAPLTIMSKVIKTKSVKYMPFSLSLANFLNGVVWVIYALIKFDLFILIGNGLGTVSGAVQLILYACYYKTTPKDDEDEEDEENLSKVNSQLQLSGNSGQAKRVSA
With B3 the “glucose and xylose mixed sugar fermentation phenotype” value [2] was “co-consumption of glucose and xylose with a faster glucose consumption rate than that of xylose; also recorded: co-fermentation with glucose preference”, the “glucose and xylose mixed sugar fermentation phenotype” value ([2]; listed as SWEET4) was “simultaneously utilize glucose and xylose” and the “growth / transport capacity on glucose or xylose” value (“growth / transport capacity” below) [3] was “substantial growth on xylose and glucose; also recorded: both glucose and xylose transport capacity”. For the same molecule, the “growth / transport capacity” value ([3]; listed as SWEET4) was “capable of sustaining an efficient growth on glucose or xylose”.

B4: AtSWEET1: Arabidopsis thaliana SWEET1 transporter polypeptide, SEQ ID NO:1 (protein)
chain: MNIAHTIFGVFGNATALFLFLAPSITFKRIIKNKSTEQFSGIPYPMTLLNCLLSAWYGLPFVSKDNTLVSTINGTGAVIETVYVLIFLFYAPKKEKIKIFGIFSCVLAVFATVALVSLFALQGNGRKLFCGLAATVFSIIMYASPLSIMRLVVKTKSVEFMPFFLSLFVFLCGTSWFVYGLIGRDPFVAIPNGFGCALGTLQLILYFIYCGNKGEKSADAQKDEKSVEMKDDEKKQNVVNGKQDLQV
modifications: Arabidopsis thaliana SWEET1 (AtSWEET1) transporter polypeptide
In the case of B4, the “sole sugar fermentation performance” value ([4]; glucose or xylose conditions, YP medium) is reported as “robust glucose fermentation but inefficient xylose fermentation”, the xylose consumption ([4]; xylose fermentation, within 50 h) is reported as 5 g/L and the “glucose and xylose mixed sugar fermentation phenotype” value [2] is reported as “complete preference for glucose with negligible xylose consumption; also recorded: solo glucose fermentation”. The “growth / transport capacity” value [3] was “can sustain growth of SR8D8 in glucose and xylose containing medium; also recorded: glucose transporter with almost no xylose transport capacity”.

B5: ScGal2: S. cerevisiae Gal2 hexose transporter, control; SEQ ID NO:32 (protein)
chain: B1 chain
modifications: protein sequence alignmnet of ScGal2
In the case of B5, the “mixed sugar utilization profile at high sugar” value [5] is reported as “sequential utilization of glucose and xylose”, the “glucose and xylose mixed sugar fermentation phenotype” value [2] is reported as “sequential fermentation” and the “glucose and xylose mixed sugar fermentation phenotype” value ([2]; listed as GAL2) is reported as “transport both glucose and xylose in a sequential manner; also recorded: sequential manner of sugar utilization”. For the same molecule, the “inhibition of xylose transport by glucose (in words)” value [6] was “complete xylose inhibition even at the presence of 25 mM glucose”.

B6: F168A: AtSWEET1 single mutation F168A (protein, UniProt Q8L9J7 1-247, looked up, variant F168A)
Bidirectional sugar …: B4 chain with F168A
B6 was tested, and the “glucose and xylose mixed sugar fermentation phenotype” value [2] was “capable of improving both glucose and xylose uptake rate”.

B7: A175F: AtSWEET7 single mutation A175F (protein, UniProt Q8LBF7 1-258, looked up, variant A175F)
Bidirectional sugar …: MVFAHLNLLRKIVGIIGNFIALCLFLSPTPTFVRIVKKKSVEEYSPIPYLATLINCLVWVLYGLPTVHPDSTLVITINGTGILIEIVFLTIFFVYCGRQKQRLIISAVIAAETAFIAILAVLVLTLQHTTEKRTMSVGIVCCVFNVMMYASPLSVMKMVIKTKSVEFMPFWLSVFGFLNAGVWTIYALMPFDPFMAIPNGIGCLFGLAQLILYGAYYKSTKRIMAERENQPGYVGLSSAIARTGSEKTANTNQEPNNV
B7 was tested, and the “glucose and xylose mixed sugar fermentation phenotype” value [2] was “capable of improving glucose and xylose uptake rate”.

B8: AtSWEET5: Arabidopsis thaliana SWEET5 transporter polypeptide (protein, UniProt Q9FM10 1-240, looked up)
Bidirectional sugar …: MTDPHTARTIVGIVGNVISFGLFCAPIPTMVKIWKMKSVSEFKPDPYVATVLNCMMWTFYGLPFVQPDSLLVITINGTGLFMELVYVTIFFVFATSPVRRKITIAMVIEVIFMAVVIFCTMYFLHTTKQRSMLIGILCIVFNVIMYAAPLTVMKLVIKTKSVKYMPFFLSLANFMNGVVWVIYACLKFDPYILIPNGLGSLSGIIQLIIYITYYKTTNWNDDDEDKEKRYSNAGIELGQA
B8 was tested, and the “glucose and xylose mixed sugar fermentation phenotype” value [2] was “simultaneously utilize glucose and xylose” and the “growth / transport capacity” value [3] was “capable of sustaining an efficient growth on glucose or xylose”.
